In patent US20250027955A1, “ETHYLENE RECEPTORS AND BINDING DOMAINS WITH MODIFIED BINDING KINETICS FOR ETHYLENE” (Trustees of Dartmouth College, priority 2022, published 2025):
Substitutions are numbered along the chain they refer to. In names and notes the source's numbering stands.

B1: etr1-1: well-characterized ETR1 missense mutation Cys65Tyr; ethylene-insensitive control (protein, UniProt P49333 1-738, looked up, variant C65Y)
Ethylene receptor 1: MEVCNCIEPQWPADELLMKYQYISDFFIAIAYFSIPLELIYFVKKSAVFPYRWVLVQFGAFIVLYGATHLINLWTFTTHSRTVALVMTTAKVLTAVVSCATALMLVHIIPDLLSVKTRELFLKNKAAELDREMGLIRTQEETGRHVRMLTHEIRSTLDRHTILKTTLVELGRTLALEECALWMPTRTGLELQLSYTLRHQHPVEYTVPIQLPVINQVFGTSRAVKISPNSPVARLRPVSGKYMLGEVVAVRVPLLHLSNFQINDWPELSTKRYALMVLMLPSDSARQWHVHELELVEVVADQVAVALSHAAILEESMRARDLLMEQNVALDLARREAETAIRARNDFLAVMNHEMRTPMHAIIALSSLLQETELTPEQRLMVETILKSSNLLATLMNDVLDLSRLEDGSLQLELGTFNLHTLFREVLNLIKPIAVVKKLPITLNLAPDLPEFVVGDEKRLMQIILNIVGNAVKFSKQGSISVTALVTKSDTRAADFFVVPTGSHFYLRVKVKDSGAGINPQDIPKIFTKFAQTQSLATRSSGGSGLGLAISKRFVNLMEGNIWIESDGLGKGCTAIFDVKLGISERSNESKQSGIPKVPAIPRHSNFTGLKVLVMDENGVSRMVTKGLLVHLGCEVTTVSSNEECLRVVSHEHKVVFMDVCMPGVENYQIALRIHEKFTKQRHQRPLLVALSGNTDKSTKEKCMSFGLDGVLLKPVSLDNIRDVLSDLLEPRVLYEGM
B2: ETR1^D25N: ETR1 with site-directed mutation Asp25Asn, carboxylic acid changed to carboxamide (protein, UniProt P49333 1-738, looked up, variant D25N)
Ethylene receptor 1: B1 Ethylene receptor 1 with D25N, Y65C

How the values were obtained:
[1] = system: Arabidopsis seedlings, etr1 etr2 ein4 ers1 ers2 background; test: Ethylene and 1-MCP response of ETR1^D25N lines lacking all five native ethylene receptors; type: in vivo; conditions: 1 μM ethylene
ETR1 = ETR1 (Arabidopsis thaliana, UniProt P49333); conditions: read-out: calculated dissociation constant (Kd); ethylene binding to ETR1; cited from earlier work
plants = conditions: in vivo; cited from earlier work
[2] = Copper binding assay: purified ETR1 transmembrane domain titrated to BCA2-Cu(I) complex, absorbance at 562 nm; conditions: ETR1-TMD expressed and purified from E. coli; Cu(I) stabilized by BCA
From the text: Cu(I) was stabilized by the copper chelator BCA, and then titrated with increasing ETR1 protein concentration.
Titration curves were corrected for nonspecific binding observed with chemically and thermally denatured receptor to maximize signal to background levels.

[3] = Saturable [14C]ethylene binding to yeast transgenically expressing ETR1; parameters: species or system Saccharomyces cerevisiae; conditions: for saturable [14C]ethylene binding: 0.21 μL L^−1 [14C]ethylene, with or without excess [12C]ethylene
From the text: Saturable ethylene binding of the ETR1 Asp25 mutants was examined by heterologous expression in yeast, with binding to [^14C]ethylene determined in the presence or absence of excess [^12C]ethylene (FIG. 2C). […] This included the ETR1^D25A mutant, consistent with previous observations, as well as for the ETR1^D25N and ETR1^D25Q mutants (FIG. 2C). Results from the ethylene binding assay are therefore consistent with the negative charge at D25 playing a significant role in mediating high-affinity ethylene binding.
[^14C]ethylene (specific activity=116 mCi/mmol) was obtained from ViTrax Radiochemicals (Placentia, CA) and trapped as the mercuric perchlorate complex as described. For ethylene binding assays in yeast, ETR1 was expressed in the yeast Saccharomyces cerevisiae (strain FY834) using the vector pYcDE-2 and a constitutive ADC1 promoter. The yeast growth media was supplemented with 40 μg L^−1 copper sulfate. Saturable ethylene binding to yeast was determined by analyzing binding of 0.3 g yeast per sample to 0.21 μL L^−1 [^14C]ethylene, in the presence or absence of excess [^12C]ethylene.

[4] = system: Arabidopsis seedlings, etr1 etr2 ein4 background; test: Triple-response hypocotyl growth assay of dark-grown seedlings expressing ETR1 transgenes; type: in vivo; conditions: for rescue of growth of etr1 etr2 ein4 triple mutant in air: absence of ethylene, hypocotyl and adult shoot growth
Protocol: Functionality of the ETR1 Asp25 mutants was tested by transgenic expression in the etr1 etr2 ein4 Arabidopsis background.
Applicant can thus exploit the triple mutant to assess the ability of the ETR1 transgenes to rescue growth in the absence of ethylene as well as their ability to mediate a response to ethylene. Such an analysis indicates whether the encoded receptors are able to assume the ‘on’ conformation that represses the ethylene response in air, as well as the ‘off’ conformation that occurs in response to ethylene binding.
(§1) All Arabidopsis lines were of the Columbia (Col-0) accession. The etr1-1 and etr1-6 etr2-3 ein4-4 mutant lines have been described. Analysis of the triple response of dark-grown Arabidopsis seedlings to ethylene was performed as described previously. Briefly, seedlings were grown at 22° C. on vertically oriented plates on half-strength Murashige and Skoog basal medium with Gamborg's vitamins (pH 5.75; Sigma), 0.8% (w/v) agar, and 5 μM aminoethoxyvinylglycine (AVG) to inhibit ethylene biosynthesis. The stratified seed was exposed to light for 8 hr and then moved to the dark in the presence or absence of ethylene, with analysis of the seedling growth being performed following 4 days total growth. For short-term kinetic analysis of dark-grown seedlings, time-lapse imaging and growth rate analysis of hypocotyls were carried out as described previously.

[5] = system: Arabidopsis seedlings, etr1 etr2 ein4 background; test: Short-term kinetic analysis of hypocotyl growth response to ethylene; type: in vivo; conditions: for short-term hypocotyl growth response to ethylene: 10 μL/L ethylene for 2 hr; for growth recovery upon ethylene removal: after 2 hr of 10 μL/L ethylene, 5-hr recovery in air
Protocol: Based on the differences Applicant uncovered for the long-term ethylene growth responses for the Asp25 mutants, Applicant also analyzed their short-term hypocotyl growth and molecular responses to ethylene. To this end, Applicant performed a short-term kinetic analysis, analyzing the initial hypocotyl growth inhibition in response to 10 μL/L ethylene and the growth recovery following the removal of ethylene after two hours of treatment (FIG. 6A).
as §1

[6] = system: OSR1, ERF1, EXP5 and EXPb1 expression; test: Ethylene-dependent gene expression by RT-qPCR; type: in vivo, Arabidopsis; conditions: 0 or 1 μL L^−1 ethylene for 2 hr
Protocol: To examine the short-term molecular response, Applicant characterized ethylene-dependent gene expression for the ETR1 Asp25 mutants (FIG. 6B). Expression of OSR1 and ERF1 is induced, whereas the expression of EXP5 and EXPb1 is repressed, in response to ethylene.
RNA isolation and RT-qPCR was performed with three biological replicates and two technical replicates of each.

[7] = Saturable [14C]ethylene binding of Arabidopsis seedlings (in planta); conditions: two-week-old green seedlings, 0.31 μL L^−1 [14C]ethylene, 5 μM AVG
Protocol: [^14C]ethylene binding was examined in two-week-old green seedlings grown on media containing 5 μM aminoethoxyvinylglycine (AVG) to inhibit ethylene biosynthesis.
For ethylene binding assays with Arabidopsis seedlings, two-week-old green seedlings were used that had been grown on media containing 5 μl M AVG to inhibit ethylene biosynthesis, with ˜1 g seedlings per sample. The fresh weight of seedlings was determined, and each sample packaged into bags formed from a layer of cheese cloth and stapled at the top. Humidity was maintained in the ethylene binding chambers by use of moistened paper towels. Saturable ethylene binding was determined by analyzing binding to 0.31 μL L^−1 [^14C]ethylene, in the presence or absence of excess [^12C]ethylene.

[8] = system: dark-grown Arabidopsis seedlings; test: Silver sensitivity assay: effect of silver on ethylene response of dark-grown seedlings; type: in vivo; conditions: transgene in etr1 etr2 ein4 background, 10 μL/L ethylene
From the text: As an initial test for the feasibility of the first hypothesis, Applicant asked if ETR1^D25N could still bind a metal cofactor, and therefore potentially ethylene, in planta. For this purpose, Applicant examined the effects of silver (Ag) on ethylene sensitivity. Silver is thought to substitute for the copper cofactor and, although receptors containing silver can still bind ethylene, they no longer transmit the signal, resulting in ethylene insensitivity.

[9] = previously reported; cited from earlier work
[10] = previously reported; cited from earlier work; remark: listed apart in the source
[11] = system: Arabidopsis seedlings, etr1 etr2 ein4 background; conditions: previously reported; cited from earlier work

Chain of ETR1 (P49333 whole entry): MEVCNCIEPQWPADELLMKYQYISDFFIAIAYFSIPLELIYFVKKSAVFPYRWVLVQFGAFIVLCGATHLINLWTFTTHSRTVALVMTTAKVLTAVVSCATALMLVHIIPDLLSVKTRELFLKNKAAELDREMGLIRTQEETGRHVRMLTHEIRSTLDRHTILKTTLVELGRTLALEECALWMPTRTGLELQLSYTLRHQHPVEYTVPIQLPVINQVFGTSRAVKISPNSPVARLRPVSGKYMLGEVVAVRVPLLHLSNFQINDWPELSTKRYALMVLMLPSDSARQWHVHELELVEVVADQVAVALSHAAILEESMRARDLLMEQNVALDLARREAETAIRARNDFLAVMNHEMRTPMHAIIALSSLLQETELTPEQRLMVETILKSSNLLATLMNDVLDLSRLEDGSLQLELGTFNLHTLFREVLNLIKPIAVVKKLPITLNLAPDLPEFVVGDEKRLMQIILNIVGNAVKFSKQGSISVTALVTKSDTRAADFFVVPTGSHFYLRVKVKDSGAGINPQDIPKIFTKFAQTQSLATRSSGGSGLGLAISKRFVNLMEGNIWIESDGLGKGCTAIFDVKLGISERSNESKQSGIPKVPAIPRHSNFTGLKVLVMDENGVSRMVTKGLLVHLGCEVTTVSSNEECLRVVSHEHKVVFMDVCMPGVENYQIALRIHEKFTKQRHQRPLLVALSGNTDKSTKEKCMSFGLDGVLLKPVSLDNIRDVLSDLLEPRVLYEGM

Molecule | copper binding [2] | saturable [14C]ethylene binding [3] | rescue of growth of etr1 etr2 ein4 triple mutant in air [4] | short-term hypocotyl growth response to ethylene [5] | growth recovery upon ethylene removal [5] | molecular response to ethylene (ethylene-dependent gene expression) [6] | ethylene binding in planta versus etr1 etr2 ein4 basal level [7] | ability of silver to block the ethylene response in transgene lines [8] | further results
CC1=CC1 [1-methylcyclopropene, reference compound] |  |  |  |  |  |  |  |  | effect of 1-MCP on ethylene response ([1]; ETR1^D25N (etr1 etr2 ein4 ers1 ers2) lines, 1 μM 1-MCP): blocked
C=C [Ethylene, ethylene] |  |  |  |  |  |  |  |  | Kd (ETR1): 2.4 nM; ethylene concentration plants respond to (as low as) (plants): 0.2 nL L^−1
ETR1^wt: wild-type ethylene receptor ETR1 of Arabidopsis | copper binding | Saturable binding | rescued growth | rapid growth response to ethylene | growth recovery intermediate between that exhibited by the wild-type and the etr1 etr2 ein4 seedlings | consistent with what is observed in the wild-type control | significant increase in ethylene binding | restores the ability of silver to block the ethylene response | 
B1 |  |  |  |  |  |  |  |  | copper cofactor binding (previous studies) [9]: no longer binds the copper cofactor; ethylene binding (previous studies) [10]: no longer binds ethylene; ethylene sensitivity of plants (previous studies) [11]: confers dominant ethylene insensitivity
B2 | minimal residual binding | No saturable [^14C]ethylene binding was detected | rescued growth | rapid growth response to ethylene | growth recovery intermediate between that exhibited by the wild-type and the etr1 etr2 ein4 seedlings | consistent with what is observed in the wild-type control | no increase in ethylene binding | restores the ability of silver to block the ethylene response | koff increase ([3]; relative to ETR1^wt, suggested by inability to detect [14C]ethylene binding): at least 100 fold; hypocotyl growth response to ethylene ([4]; dark-grown seedlings, 0 or 1 μL L^−1 ethylene): rescued the hypocotyl growth response to ethylene to the same degree as ETR1^wt; response to ethylene without other native receptors ([1]; etr1 etr2 ein4 ers1 ers2 lines #11 and #15): still responded to ethylene
